According to patent US20180142226:

Key:
PFPQPQQPF peptide = biological target: T1, PFPQPQQPF peptide
T1 chain: PFPQPQQPF

PFPQPQLPY peptide = biological target: T2, PFPQPQLPY peptide
T2 chain: PFPQPQLPY

| Protein | % Improvement on PFPQPQQPF (SEQ ID NO: 68) (PFPQPQQPF peptide) [%] | % Improvement on PFPQPQLPY (SEQ ID NO: 67) (PFPQPQLPY peptide) [%] |
| --- | --- | --- |
| Kuma011-I463Q (protein) AAPTAYTPLDVAQAYQFPEGLDGQGQCIAIIELGGGYDEASLAQYFASLGVPAPQVVSVSVDGASNQPTGDPKGPDGEVELDIEVAGALAPGAKFAVYFAPDTTAGFLDAITTAIHDPTLKPSVVSISWSGPEDSWTSAAIAAMNRAFLDAAALGVTVLAAAGDSGSTGGEQDGLYHVHFPAASPYVLACGGTRLVASGGRIAQETVWNDGPDGGATGGGVSRIFPLPAWQEHANVPPSANPGASSGRGVPDLAGNADPATGYEVVIDGEATVQGGTSAVAPLFAALVARINQKLGKAVGYLNPTLYQLPADVFHDITEGNNDIANRAQIYQAGPGWDPCTGLGSPIGVRLLQALLPSASQPQ | 69 | 129 |
| Kuma010/011 E221N (protein) AAPTAYTPLDVAQAYQFPEGLDGQGQCIAIINLGGGYDEASLAQYFASLGVPAPQVVSVSVDGASNQPTGDPKGPDGEVELDIEVAGALAPGAKFAVYFAPDTTAGFLDAITTAIHDPTLKPSVVSISWSGPEDSWTSAAIAAMNRAFLDAAALGVTVLAAAGDSGSTGGEQDGLYHVHFPAASPYVLACGGTRLVASGGRIAQETVWNDGPDGGATGGGVSRIFPLPAWQEHANVPPSANPGASSGRGVPDLAGNADPATGYEVVIDGEATVIGGTSAVAPLFAALVARINQKLGKAVGYLNPTLYQLPADVFHDITEGNNDIANRAQIYQAGPGWDPCTGLGSPIGVRLLQALLPSASQPQ | – | 105 |
| Kuma011-V268T (protein) AAPTAYTPLDVAQAYQFPEGLDGQGQCIAIIELGGGYDEASLAQYFASLGVPAPQVVSVSVDGASNQPTGDPKGPDGETELDIEVAGALAPGAKFAVYFAPDTTAGFLDAITTAIHDPTLKPSVVSISWSGPEDSWTSAAIAAMNRAFLDAAALGVTVLAAAGDSGSTGGEQDGLYHVHFPAASPYVLACGGTRLVASGGRIAQETVWNDGPDGGATGGGVSRIFPLPAWQEHANVPPSANPGASSGRGVPDLAGNADPATGYEVVIDGEATVIGGTSAVAPLFAALVARINQKLGKAVGYLNPTLYQLPADVFHDITEGNNDIANRAQIYQAGPGWDPCTGLGSPIGVRLLQALLPSASQPQ | 105 | 127 |
| Kuma011-E269L (protein) AAPTAYTPLDVAQAYQFPEGLDGQGQCIAIIELGGGYDEASLAQYFASLGVPAPQVVSVSVDGASNQPTGDPKGPDGEVLLDIEVAGALAPGAKFAVYFAPDTTAGFLDAITTAIHDPTLKPSVVSISWSGPEDSWTSAAIAAMNRAFLDAAALGVTVLAAAGDSGSTGGEQDGLYHVHFPAASPYVLACGGTRLVASGGRIAQETVWNDGPDGGATGGGVSRIFPLPAWQEHANVPPSANPGASSGRGVPDLAGNADPATGYEVVIDGEATVIGGTSAVAPLFAALVARINQKLGKAVGYLNPTLYQLPADVFHDITEGNNDIANRAQIYQAGPGWDPCTGLGSPIGVRLLQALLPSASQPQ | 84 | 113 |
| Kuma011-I463T (protein) AAPTAYTPLDVAQAYQFPEGLDGQGQCIAIIELGGGYDEASLAQYFASLGVPAPQVVSVSVDGASNQPTGDPKGPDGEVELDIEVAGALAPGAKFAVYFAPDTTAGFLDAITTAIHDPTLKPSVVSISWSGPEDSWTSAAIAAMNRAFLDAAALGVTVLAAAGDSGSTGGEQDGLYHVHFPAASPYVLACGGTRLVASGGRIAQETVWNDGPDGGATGGGVSRIFPLPAWQEHANVPPSANPGASSGRGVPDLAGNADPATGYEVVIDGEATVTGGTSAVAPLFAALVARINQKLGKAVGYLNPTLYQLPADVFHDITEGNNDIANRAQIYQAGPGWDPCTGLGSPIGVRLLQALLPSASQPQ | 239 | 130 |
| Kuma011-V268A (protein) AAPTAYTPLDVAQAYQFPEGLDGQGQCIAIIELGGGYDEASLAQYFASLGVPAPQVVSVSVDGASNQPTGDPKGPDGEAELDIEVAGALAPGAKFAVYFAPDTTAGFLDAITTAIHDPTLKPSVVSISWSGPEDSWTSAAIAAMNRAFLDAAALGVTVLAAAGDSGSTGGEQDGLYHVHFPAASPYVLACGGTRLVASGGRIAQETVWNDGPDGGATGGGVSRIFPLPAWQEHANVPPSANPGASSGRGVPDLAGNADPATGYEVVIDGEATVIGGTSAVAPLFAALVARINQKLGKAVGYLNPTLYQLPADVFHDITEGNNDIANRAQIYQAGPGWDPCTGLGSPIGVRLLQALLPSASQPQ | 89 | 107 |
| Kuma010/011 E221D (protein) AAPTAYTPLDVAQAYQFPEGLDGQGQCIAIIDLGGGYDEASLAQYFASLGVPAPQVVSVSVDGASNQPTGDPKGPDGEVELDIEVAGALAPGAKFAVYFAPDTTAGFLDAITTAIHDPTLKPSVVSISWSGPEDSWTSAAIAAMNRAFLDAAALGVTVLAAAGDSGSTGGEQDGLYHVHFPAASPYVLACGGTRLVASGGRIAQETVWNDGPDGGATGGGVSRIFPLPAWQEHANVPPSANPGASSGRGVPDLAGNADPATGYEVVIDGEATVIGGTSAVAPLFAALVARINQKLGKAVGYLNPTLYQLPADVFHDITEGNNDIANRAQIYQAGPGWDPCTGLGSPIGVRLLQALLPSASQPQ | – | 105 |
| Kuma011-I463R (protein) AAPTAYTPLDVAQAYQFPEGLDGQGQCIAIIELGGGYDEASLAQYFASLGVPAPQVVSVSVDGASNQPTGDPKGPDGEVELDIEVAGALAPGAKFAVYFAPDTTAGFLDAITTAIHDPTLKPSVVSISWSGPEDSWTSAAIAAMNRAFLDAAALGVTVLAAAGDSGSTGGEQDGLYHVHFPAASPYVLACGGTRLVASGGRIAQETVWNDGPDGGATGGGVSRIFPLPAWQEHANVPPSANPGASSGRGVPDLAGNADPATGYEVVIDGEATVRGGTSAVAPLFAALVARINQKLGKAVGYLNPTLYQLPADVFHDITEGNNDIANRAQIYQAGPGWDPCTGLGSPIGVRLLQALLPSASQPQ | 110 | 29 |
| Kuma011-I463V (protein) AAPTAYTPLDVAQAYQFPEGLDGQGQCIAIIELGGGYDEASLAQYFASLGVPAPQVVSVSVDGASNQPTGDPKGPDGEVELDIEVAGALAPGAKFAVYFAPDTTAGFLDAITTAIHDPTLKPSVVSISWSGPEDSWTSAAIAAMNRAFLDAAALGVTVLAAAGDSGSTGGEQDGLYHVHFPAASPYVLACGGTRLVASGGRIAQETVWNDGPDGGATGGGVSRIFPLPAWQEHANVPPSANPGASSGRGVPDLAGNADPATGYEVVIDGEATVVGGTSAVAPLFAALVARINQKLGKAVGYLNPTLYQLPADVFHDITEGNNDIANRAQIYQAGPGWDPCTGLGSPIGVRLLQALLPSASQPQ | 141 | 256 |
| Kuma011-N424K (protein) AAPTAYTPLDVAQAYQFPEGLDGQGQCIAIIELGGGYDEASLAQYFASLGVPAPQVVSVSVDGASNQPTGDPKGPDGEVELDIEVAGALAPGAKFAVYFAPDTTAGFLDAITTAIHDPTLKPSVVSISWSGPEDSWTSAAIAAMNRAFLDAAALGVTVLAAAGDSGSTGGEQDGLYHVHFPAASPYVLACGGTRLVASGGRIAQETVWNDGPDGGATGGGVSRIFPLPAWQEHAKVPPSANPGASSGRGVPDLAGNADPATGYEVVIDGEATVIGGTSAVAPLFAALVARINQKLGKAVGYLNPTLYQLPADVFHDITEGNNDIANRAQIYQAGPGWDPCTGLGSPIGVRLLQALLPSASQPQ | – | 285 |
| Kuma010/011 E221H (protein) AAPTAYTPLDVAQAYQFPEGLDGQGQCIAIIHLGGGYDEASLAQYFASLGVPAPQVVSVSVDGASNQPTGDPKGPDGEVELDIEVAGALAPGAKFAVYFAPDTTAGFLDAITTAIHDPTLKPSVVSISWSGPEDSWTSAAIAAMNRAFLDAAALGVTVLAAAGDSGSTGGEQDGLYHVHFPAASPYVLACGGTRLVASGGRIAQETVWNDGPDGGATGGGVSRIFPLPAWQEHANVPPSANPGASSGRGVPDLAGNADPATGYEVVIDGEATVIGGTSAVAPLFAALVARINQKLGKAVGYLNPTLYQLPADVFHDITEGNNDIANRAQIYQAGPGWDPCTGLGSPIGVRLLQALLPSASQPQ | – | 105 |
| Kuma011-V268S (protein) AAPTAYTPLDVAQAYQFPEGLDGQGQCIAIIELGGGYDEASLAQYFASLGVPAPQVVSVSVDGASNQPTGDPKGPDGESELDIEVAGALAPGAKFAVYFAPDTTAGFLDAITTAIHDPTLKPSVVSISWSGPEDSWTSAAIAAMNRAFLDAAALGVTVLAAAGDSGSTGGEQDGLYHVHFPAASPYVLACGGTRLVASGGRIAQETVWNDGPDGGATGGGVSRIFPLPAWQEHANVPPSANPGASSGRGVPDLAGNADPATGYEVVIDGEATVIGGTSAVAPLFAALVARINQKLGKAVGYLNPTLYQLPADVFHDITEGNNDIANRAQIYQAGPGWDPCTGLGSPIGVRLLQALLPSASQPQ | 83 | 104 |
| Kuma010/011 E221Q (protein) AAPTAYTPLDVAQAYQFPEGLDGQGQCIAIIQLGGGYDEASLAQYFASLGVPAPQVVSVSVDGASNQPTGDPKGPDGEVELDIEVAGALAPGAKFAVYFAPDTTAGFLDAITTAIHDPTLKPSVVSISWSGPEDSWTSAAIAAMNRAFLDAAALGVTVLAAAGDSGSTGGEQDGLYHVHFPAASPYVLACGGTRLVASGGRIAQETVWNDGPDGGATGGGVSRIFPLPAWQEHANVPPSANPGASSGRGVPDLAGNADPATGYEVVIDGEATVIGGTSAVAPLFAALVARINQKLGKAVGYLNPTLYQLPADVFHDITEGNNDIANRAQIYQAGPGWDPCTGLGSPIGVRLLQALLPSASQPQ | – | 105 |
| Kuma011-K262E (protein) AAPTAYTPLDVAQAYQFPEGLDGQGQCIAIIELGGGYDEASLAQYFASLGVPAPQVVSVSVDGASNQPTGDPEGPDGEVELDIEVAGALAPGAKFAVYFAPDTTAGFLDAITTAIHDPTLKPSVVSISWSGPEDSWTSAAIAAMNRAFLDAAALGVTVLAAAGDSGSTGGEQDGLYHVHFPAASPYVLACGGTRLVASGGRIAQETVWNDGPDGGATGGGVSRIFPLPAWQEHANVPPSANPGASSGRGVPDLAGNADPATGYEVVIDGEATVIGGTSAVAPLFAALVARINQKLGKAVGYLNPTLYQLPADVFHDITEGNNDIANRAQIYQAGPGWDPCTGLGSPIGVRLLQALLPSASQPQ | 110 | 109 |
